B1: Keratin, type II cytoskeletal 6A (Homo sapiens), P02538 (parent)
chain: MASTSTTIRSHSSSRRGFSANSARLPGVSRSGFSSVSVSRSRGSGGLGGACGGAGFGSRSLYGLGGSKRISIGGGSCAISGGYGSRAGGSYGFGGAGSGFGFGGGAGIGFGLGGGAGLAGGFGGPGFPVCPPGGIQEVTVNQSLLTPLNLQIDPTIQRVRAEEREQIKTLNNKFASFIDKVRFLEQQNKVLETKWTLLQEQGTKTVRQNLEPLFEQYINNLRRQLDSIVGERGRLDSELRGMQDLVEDFKNKYEDEINKRTAAENEFVTLKKDVDAAYMNKVELQAKADTLTDEINFLRALYDAELSQMQTHISDTSVVLSMDNNRNLDLDSIIAEVKAQYEEIAQRSRAEAESWYQTKYEELQVTAGRHGDDLRNTKQEIAEINRMIQRLRSEIDHVKKQCANLQAAIADAEQRGEMALKDAKNKLEGLEDALQKAKQDLARLLKEYQELMNVKLALDVEIATYRKLLEGEECRLNGEGVGQVNISVVQSTVSSGYGGASGVGSGLGLGGGSSYSYGSGLGVGGGFSSSSGRAIGGGLSSVGGGSSTIKYTTTSSSSRKSYKH
partner: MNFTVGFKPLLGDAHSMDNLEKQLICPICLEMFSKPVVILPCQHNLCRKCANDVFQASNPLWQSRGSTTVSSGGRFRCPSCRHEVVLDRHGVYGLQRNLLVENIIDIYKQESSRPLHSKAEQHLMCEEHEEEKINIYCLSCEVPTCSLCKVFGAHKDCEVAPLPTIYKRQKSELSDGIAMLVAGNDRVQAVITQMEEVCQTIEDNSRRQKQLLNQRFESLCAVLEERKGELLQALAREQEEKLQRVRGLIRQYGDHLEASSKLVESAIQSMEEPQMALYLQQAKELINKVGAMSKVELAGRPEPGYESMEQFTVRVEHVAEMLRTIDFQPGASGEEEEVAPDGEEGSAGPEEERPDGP
B2: Keratin, type II cytoskeletal 6A (Homo sapiens), P02538 (parent)
chain: B1 chain
partner: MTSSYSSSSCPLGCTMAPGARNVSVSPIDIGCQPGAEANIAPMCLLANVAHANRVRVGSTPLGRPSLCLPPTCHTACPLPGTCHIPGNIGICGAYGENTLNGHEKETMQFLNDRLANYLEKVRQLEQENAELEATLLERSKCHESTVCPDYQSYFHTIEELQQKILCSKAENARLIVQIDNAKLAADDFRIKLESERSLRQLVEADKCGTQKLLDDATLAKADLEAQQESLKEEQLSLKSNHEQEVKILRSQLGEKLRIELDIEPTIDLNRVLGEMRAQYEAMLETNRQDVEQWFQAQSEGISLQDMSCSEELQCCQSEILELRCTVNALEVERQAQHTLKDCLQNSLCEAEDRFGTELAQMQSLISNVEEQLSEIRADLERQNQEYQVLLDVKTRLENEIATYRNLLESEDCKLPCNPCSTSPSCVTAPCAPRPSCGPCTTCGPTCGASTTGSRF
B3: Keratin, type II cytoskeletal 2 epidermal (Homo sapiens), P35908 (parent)
chain: MSCQISCKSRGRGGGGGGFRGFSSGSAVVSGGSRRSTSSFSCLSRHGGGGGGFGGGGFGSRSLVGLGGTKSISISVAGGGGGFGAAGGFGGRGGGFGGGSSFGGGSGFSGGGFGGGGFGGGRFGGFGGPGGVGGLGGPGGFGPGGYPGGIHEVSVNQSLLQPLNVKVDPEIQNVKAQEREQIKTLNNKFASFIDKVRFLEQQNQVLQTKWELLQQMNVGTRPINLEPIFQGYIDSLKRYLDGLTAERTSQNSELNNMQDLVEDYKKKYEDEINKRTAAENDFVTLKKDVDNAYMIKVELQSKVDLLNQEIEFLKVLYDAEISQIHQSVTDTNVILSMDNSRNLDLDSIIAEVKAQYEEIAQRSKEEAEALYHSKYEELQVTVGRHGDSLKEIKIEISELNRVIQRLQGEIAHVKKQCKNVQDAIADAEQRGEHALKDARNKLNDLEEALQQAKEDLARLLRDYQELMNVKLALDVEIATYRKLLEGEECRMSGDLSSNVTVSVTSSTISSNVASKAAFGGSGGRGSSSGGGYSSGSSSYGSGGRQSGSRGGSGGGGSISGGGYGSGGGSGGRYGSGGGSKGGSISGGGYGSGGGKHSSGGGSRGGSSSGGGYGSGGGGSSSVKGSSGEAFGSSVTFSFR
partner: B2 partner
B4: Aspartoacylase (Homo sapiens), P45381 (parent)
chain: MTSCHIAEEHIQKVAIFGGTHGNELTGVFLVKHWLENGAEIQRTGLEVKPFITNPRAVKKCTRYIDCDLNRIFDLENLGKKMSEDLPYEVRRAQEINHLFGPKDSEDSYDIIFDLHNTTSNMGCTLILEDSRNNFLIQMFHYIKTSLAPLPCYVYLIEHPSLKYATTRSIAKYPVGIEVGPQPQGVLRADILDQMRKMIKHALDFIHHFNEGKEFPPCAIEVYKIIEKVDYPRDENGEIAAIIHPNLQDQDWKPLHPGDPMFLTLDGKTIPLGGDCTVYPVFVNEAAYYEKKEAFAKTTKLTLNAKSIRCCLH
partner: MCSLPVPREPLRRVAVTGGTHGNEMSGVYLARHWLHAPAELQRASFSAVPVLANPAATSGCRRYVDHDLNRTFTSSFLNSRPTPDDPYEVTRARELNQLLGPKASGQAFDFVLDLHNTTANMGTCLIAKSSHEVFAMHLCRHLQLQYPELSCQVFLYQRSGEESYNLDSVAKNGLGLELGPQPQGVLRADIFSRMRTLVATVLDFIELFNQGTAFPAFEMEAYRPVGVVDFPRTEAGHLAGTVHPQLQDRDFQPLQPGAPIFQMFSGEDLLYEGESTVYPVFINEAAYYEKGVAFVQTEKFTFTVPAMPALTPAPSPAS
B5: LHFPL tetraspan subfamily member 5 protein (Homo sapiens), Q8TAF8 (parent)
chain: MVKLLPAQEAAKIYHTNYVRNSRAVGVMWGTLTICFSVLVMALFIQPYWIGDSVNTPQAGYFGLFSYCVGNVLSSELICKGGPLDFSSIPSRAFKTAMFFVALGMFLIIGSIICFSLFFICNTATVYKICAWMQLAAATGLMIGCLVYPDGWDSSEVRRMCGEQTGKYTLGHCTIRWAFMLAILSIGDALILSFLAFVLGYRQDKLLPDDYKADGTEEV
partner: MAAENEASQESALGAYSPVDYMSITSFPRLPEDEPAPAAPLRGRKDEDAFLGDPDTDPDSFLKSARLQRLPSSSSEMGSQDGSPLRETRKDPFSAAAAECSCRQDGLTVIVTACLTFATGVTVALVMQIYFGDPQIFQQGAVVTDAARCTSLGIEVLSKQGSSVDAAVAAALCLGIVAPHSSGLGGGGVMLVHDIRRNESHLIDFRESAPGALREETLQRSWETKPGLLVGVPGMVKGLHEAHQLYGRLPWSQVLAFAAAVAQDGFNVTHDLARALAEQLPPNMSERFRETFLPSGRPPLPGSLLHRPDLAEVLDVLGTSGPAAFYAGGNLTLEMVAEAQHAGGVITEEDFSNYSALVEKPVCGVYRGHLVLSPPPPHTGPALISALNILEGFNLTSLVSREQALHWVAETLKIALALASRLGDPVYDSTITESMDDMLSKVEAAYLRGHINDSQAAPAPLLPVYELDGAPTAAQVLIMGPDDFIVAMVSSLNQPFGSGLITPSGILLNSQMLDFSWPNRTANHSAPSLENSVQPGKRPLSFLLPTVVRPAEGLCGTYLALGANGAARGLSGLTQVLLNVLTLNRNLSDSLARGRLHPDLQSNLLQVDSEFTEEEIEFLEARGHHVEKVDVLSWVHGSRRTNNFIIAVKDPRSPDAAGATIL
B6: Estrogen receptor beta (Homo sapiens), Q92731-3 (parent)
chain: MDIKNSPSSLNSPSSYNCSQSILPLEHGSIYIPSSYVDSHHEYPAMTFYSPAVMNYSIPSNVTNLEGGPGRQTTSPNVLWPTPGHLSPLVVHRQLSHLYAEPQKSPWCEARSLEHTLPVNRETLKRKVSGNRCASPVTGPGSKRDAHFCAVCSDYASGYHYGVWSCEGCKAFFKRSIQGHNDYICPATNQCTIDKNRRKSCQACRLRKCYEVGMVKCGSRRERCGYRLVRRQRSADEQLHCAGKAKRSGGHAPRVRELLLDALSPEQLVLTLLEAEPPHVLISRPSAPFTEASMMMSLTKLADKELVHMISWAKKIPGMRGNA
partner: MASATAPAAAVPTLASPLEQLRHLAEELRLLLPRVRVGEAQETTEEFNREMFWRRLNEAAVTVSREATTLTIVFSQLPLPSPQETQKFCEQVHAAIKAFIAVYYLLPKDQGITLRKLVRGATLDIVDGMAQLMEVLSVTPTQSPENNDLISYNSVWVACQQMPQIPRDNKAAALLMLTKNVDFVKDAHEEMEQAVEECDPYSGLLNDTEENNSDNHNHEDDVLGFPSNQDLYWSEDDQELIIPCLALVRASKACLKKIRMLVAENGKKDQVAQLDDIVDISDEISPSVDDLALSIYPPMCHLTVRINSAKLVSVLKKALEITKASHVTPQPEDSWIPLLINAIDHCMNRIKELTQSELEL
B7: ATP synthase mitochondrial F1 complex assembly factor 2 (Homo sapiens), Q8N5M1 (parent)
chain: MWRSCLRLRDGGRRLLNRPAGGPSASMSPGPTIPSPARAYAPPTERKRFYQNVSITQGEGGFEINLDHRKLKTPQAKLFTVPSEALAIAVATEWDSQQDTIKYYTMHLTTLCNTSLDNPTQRNKDQLIRAAVKFLDTDTICYRVEEPETLVELQRNEWDPIIEWAEKRYGVEISSSTSIMGPSIPAKTREVLVSHLASYNTWALQGIEFVAAQLKSMVLTLGLIDLRLTVEQAVLLSRLEEEYQIQKWGNIEWAHDYELQELRARTAAGTLFIHLCSESTTVKHKLLKE
B8: Beta-crystallin A4 (Homo sapiens), P53673 (parent)
chain: MTLQCTKSAGPWKMVVWDEDGFQGRRHEFTAECPSVLELGFETVRSLKVLSGAWVGFEHAGFQGQQYILERGEYPSWDAWGGNTAYPAERLTSFRPAACANHRDSRLTIFEQENFLGKKGELSDDYPSLQAMGWEGNEVGSFHVHSGAWVCSQFPGYRGFQYVLECDHHSGDYKHFREWGSHAPTFQVQSIRRIQQ

Variants of: B1
Conditions: with tri54_human TRIM54, Q9BYV2

Variant | effect of a mutation on the interaction
F174V | causing an interaction

Variants of: B1
Conditions: with tri54_human TRIM54, Q9BYV2
Remark: another data set of the same source

Variant | effect of a mutation on the interaction
F174V | with no effect
I462S | with no effect
T552S | with no effect
A463P | disrupting interaction strength
N171K | with no effect
N21S | with no effect
F249L | with no effect
V523F | with no effect

Variants of: B2
Conditions: with krt38_human KRT38, O76015

Variant | effect of a mutation on the interaction
I462S | with no effect
N171K | with no effect
A463P | with no effect
F174V | with no effect

Variants of: B2
Conditions: with krt38_human KRT38, O76015
Remark: another data set of the same source

Variant | effect of a mutation on the interaction
N21S | with no effect
V523F | with no effect
T552S | with no effect
F249L | with no effect

Variants of: B3
Conditions: with krt38_human KRT38, O76015

Variant | effect of a mutation on the interaction
N186K | with no effect
I477N | disrupting interaction strength
L484P | with no effect

Variants of: B3
Conditions: with krt38_human KRT38, O76015
Remark: another data set of the same source

Variant | effect of a mutation on the interaction
G219D | with no effect

Variants of: B4
Conditions: with acy3_human ACY3, Q96HD9

Variant | effect of a mutation on the interaction
E24G | disrupting interaction strength
M195R | disrupting interaction strength
E285A | disrupting interaction strength

Variants of: B4
Conditions: with acy3_human ACY3, Q96HD9
Remark: another data set of the same source

Variant | effect of a mutation on the interaction
I143F | disrupting interaction strength

Variants of: B5
Conditions: with ggt7_human GGT7, Q9UJ14

Variant | effect of a mutation on the interaction
Y127C | disrupting interaction strength
T165M | disrupting interaction strength

Variants of: B6
Conditions: with ccdb1_human CCNDBP1, O95273

Variant | effect of a mutation on the interaction
F289L | causing an interaction

Variants of: B7
Conditions: with ikzf3_human IKZF3, Q9UKT9
Target sequence in this assay (Q9UKT9 whole entry): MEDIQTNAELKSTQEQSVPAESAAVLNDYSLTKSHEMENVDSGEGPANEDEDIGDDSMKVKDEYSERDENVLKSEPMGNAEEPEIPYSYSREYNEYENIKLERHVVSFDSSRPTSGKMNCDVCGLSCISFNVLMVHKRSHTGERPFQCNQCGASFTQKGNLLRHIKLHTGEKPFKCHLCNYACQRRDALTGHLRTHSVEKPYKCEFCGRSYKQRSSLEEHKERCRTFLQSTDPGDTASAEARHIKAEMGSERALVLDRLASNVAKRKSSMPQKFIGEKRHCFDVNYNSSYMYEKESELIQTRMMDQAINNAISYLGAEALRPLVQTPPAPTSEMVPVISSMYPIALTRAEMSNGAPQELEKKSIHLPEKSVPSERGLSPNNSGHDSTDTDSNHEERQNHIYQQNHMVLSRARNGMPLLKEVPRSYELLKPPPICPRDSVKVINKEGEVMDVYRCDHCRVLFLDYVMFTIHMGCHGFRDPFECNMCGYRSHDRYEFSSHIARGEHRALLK

Variant | effect of a mutation on the interaction
W94R | disrupting interaction strength

Variants of: B7
Conditions: with pak5_human PAK5, Q9P286

Variant | effect of a mutation on the interaction
W94R | disrupting interaction strength

Variants of: B7
Conditions: with maga6_human MAGEA6, P43360

Variant | effect of a mutation on the interaction
W94R | disrupting interaction strength

Variants of: B7
Conditions: with lzts2_human LZTS2, Q9BRK4
Chain of lzts2_human LZTS2, Q9BRK4 (Q9BRK4 whole entry): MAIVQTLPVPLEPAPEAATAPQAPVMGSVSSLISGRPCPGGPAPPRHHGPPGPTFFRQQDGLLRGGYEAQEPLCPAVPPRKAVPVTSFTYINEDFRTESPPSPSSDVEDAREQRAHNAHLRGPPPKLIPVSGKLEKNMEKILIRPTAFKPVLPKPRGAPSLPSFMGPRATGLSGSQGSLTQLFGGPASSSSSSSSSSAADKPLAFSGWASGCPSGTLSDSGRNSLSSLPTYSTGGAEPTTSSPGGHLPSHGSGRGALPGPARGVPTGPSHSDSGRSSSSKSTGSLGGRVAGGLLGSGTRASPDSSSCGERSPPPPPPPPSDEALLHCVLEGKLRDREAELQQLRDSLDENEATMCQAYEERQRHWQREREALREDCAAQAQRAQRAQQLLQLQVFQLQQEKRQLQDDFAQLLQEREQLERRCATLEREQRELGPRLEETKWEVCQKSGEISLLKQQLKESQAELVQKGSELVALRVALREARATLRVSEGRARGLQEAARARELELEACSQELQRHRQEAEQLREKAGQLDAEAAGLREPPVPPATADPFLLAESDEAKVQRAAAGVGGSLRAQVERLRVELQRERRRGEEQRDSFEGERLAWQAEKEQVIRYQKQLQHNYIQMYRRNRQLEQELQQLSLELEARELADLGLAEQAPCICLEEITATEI

Variant | effect of a mutation on the interaction
W94R | disrupting interaction strength

Variants of: B7
Conditions: with KRT40, Q6A162
Chain of KRT40, Q6A162 (Q6A162 whole entry): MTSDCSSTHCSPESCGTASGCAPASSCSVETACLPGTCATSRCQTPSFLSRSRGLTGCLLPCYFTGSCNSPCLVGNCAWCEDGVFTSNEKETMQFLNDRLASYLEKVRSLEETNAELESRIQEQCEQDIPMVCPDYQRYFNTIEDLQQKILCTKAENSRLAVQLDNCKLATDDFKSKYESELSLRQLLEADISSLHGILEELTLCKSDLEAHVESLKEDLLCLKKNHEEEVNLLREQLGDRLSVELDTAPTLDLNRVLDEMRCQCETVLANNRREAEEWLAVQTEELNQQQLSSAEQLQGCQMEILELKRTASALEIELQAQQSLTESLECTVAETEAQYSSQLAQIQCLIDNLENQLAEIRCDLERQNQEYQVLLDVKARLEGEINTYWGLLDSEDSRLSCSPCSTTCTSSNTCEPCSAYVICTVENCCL

Variant | effect of a mutation on the interaction
W94R | disrupting interaction strength

Variants of: B7
Conditions: with rpia_human RPIA

Variant | effect of a mutation on the interaction
W94R | disrupting interaction strength

Variants of: B7
Conditions: with ews_human EWSR1, Q01844
Chain of ews_human EWSR1, Q01844 (Q01844 whole entry): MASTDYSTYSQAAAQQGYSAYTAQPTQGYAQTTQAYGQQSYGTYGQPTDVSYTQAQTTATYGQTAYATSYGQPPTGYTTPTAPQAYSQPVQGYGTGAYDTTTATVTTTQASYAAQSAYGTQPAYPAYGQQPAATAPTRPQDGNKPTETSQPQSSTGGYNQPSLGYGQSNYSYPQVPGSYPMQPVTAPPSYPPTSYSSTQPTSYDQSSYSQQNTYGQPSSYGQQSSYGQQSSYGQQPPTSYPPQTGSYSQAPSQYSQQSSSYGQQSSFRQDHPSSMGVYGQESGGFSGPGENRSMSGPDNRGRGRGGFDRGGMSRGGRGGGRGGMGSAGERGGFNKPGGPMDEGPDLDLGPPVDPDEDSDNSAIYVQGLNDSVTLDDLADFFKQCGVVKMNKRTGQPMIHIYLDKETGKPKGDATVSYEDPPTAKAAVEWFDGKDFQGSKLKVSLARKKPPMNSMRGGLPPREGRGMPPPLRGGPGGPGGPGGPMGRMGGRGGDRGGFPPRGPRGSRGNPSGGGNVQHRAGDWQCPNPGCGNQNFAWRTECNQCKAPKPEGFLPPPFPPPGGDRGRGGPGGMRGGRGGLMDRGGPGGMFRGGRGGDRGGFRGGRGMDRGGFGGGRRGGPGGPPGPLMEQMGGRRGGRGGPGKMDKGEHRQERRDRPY

Variant | effect of a mutation on the interaction
W94R | disrupting interaction strength

Variants of: B8
Conditions: with ikzf3_human IKZF3, Q9UKT9
Target sequence in this assay (Q9UKT9 whole entry): as the sequence (Q9UKT9 whole entry) above

Variant | effect of a mutation on the interaction
V36M | disrupting interaction strength
L69P | disrupting interaction strength
F94S | disrupting interaction strength

Variants of: B8
Conditions: with trip6_human TRIP6, Q15654
Chain of trip6_human TRIP6, Q15654 (Q15654 whole entry): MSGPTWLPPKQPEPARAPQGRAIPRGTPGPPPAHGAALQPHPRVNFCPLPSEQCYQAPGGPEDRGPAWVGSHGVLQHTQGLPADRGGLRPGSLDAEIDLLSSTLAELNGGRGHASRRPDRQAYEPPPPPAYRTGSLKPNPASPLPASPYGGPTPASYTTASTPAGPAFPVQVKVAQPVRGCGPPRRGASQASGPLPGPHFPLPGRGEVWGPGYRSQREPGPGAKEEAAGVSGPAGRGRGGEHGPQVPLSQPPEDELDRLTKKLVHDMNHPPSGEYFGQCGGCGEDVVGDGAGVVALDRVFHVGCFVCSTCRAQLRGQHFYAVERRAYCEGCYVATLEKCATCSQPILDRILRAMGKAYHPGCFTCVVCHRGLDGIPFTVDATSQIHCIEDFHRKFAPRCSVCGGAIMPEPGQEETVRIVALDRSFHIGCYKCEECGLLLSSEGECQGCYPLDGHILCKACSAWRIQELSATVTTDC

Variant | effect of a mutation on the interaction
V36M | disrupting interaction strength
L69P | disrupting interaction strength
F94S | disrupting interaction strength

Variants of: B8
Conditions: with gli1_human GLI1, P08151
Chain of gli1_human GLI1, P08151 (P08151 whole entry): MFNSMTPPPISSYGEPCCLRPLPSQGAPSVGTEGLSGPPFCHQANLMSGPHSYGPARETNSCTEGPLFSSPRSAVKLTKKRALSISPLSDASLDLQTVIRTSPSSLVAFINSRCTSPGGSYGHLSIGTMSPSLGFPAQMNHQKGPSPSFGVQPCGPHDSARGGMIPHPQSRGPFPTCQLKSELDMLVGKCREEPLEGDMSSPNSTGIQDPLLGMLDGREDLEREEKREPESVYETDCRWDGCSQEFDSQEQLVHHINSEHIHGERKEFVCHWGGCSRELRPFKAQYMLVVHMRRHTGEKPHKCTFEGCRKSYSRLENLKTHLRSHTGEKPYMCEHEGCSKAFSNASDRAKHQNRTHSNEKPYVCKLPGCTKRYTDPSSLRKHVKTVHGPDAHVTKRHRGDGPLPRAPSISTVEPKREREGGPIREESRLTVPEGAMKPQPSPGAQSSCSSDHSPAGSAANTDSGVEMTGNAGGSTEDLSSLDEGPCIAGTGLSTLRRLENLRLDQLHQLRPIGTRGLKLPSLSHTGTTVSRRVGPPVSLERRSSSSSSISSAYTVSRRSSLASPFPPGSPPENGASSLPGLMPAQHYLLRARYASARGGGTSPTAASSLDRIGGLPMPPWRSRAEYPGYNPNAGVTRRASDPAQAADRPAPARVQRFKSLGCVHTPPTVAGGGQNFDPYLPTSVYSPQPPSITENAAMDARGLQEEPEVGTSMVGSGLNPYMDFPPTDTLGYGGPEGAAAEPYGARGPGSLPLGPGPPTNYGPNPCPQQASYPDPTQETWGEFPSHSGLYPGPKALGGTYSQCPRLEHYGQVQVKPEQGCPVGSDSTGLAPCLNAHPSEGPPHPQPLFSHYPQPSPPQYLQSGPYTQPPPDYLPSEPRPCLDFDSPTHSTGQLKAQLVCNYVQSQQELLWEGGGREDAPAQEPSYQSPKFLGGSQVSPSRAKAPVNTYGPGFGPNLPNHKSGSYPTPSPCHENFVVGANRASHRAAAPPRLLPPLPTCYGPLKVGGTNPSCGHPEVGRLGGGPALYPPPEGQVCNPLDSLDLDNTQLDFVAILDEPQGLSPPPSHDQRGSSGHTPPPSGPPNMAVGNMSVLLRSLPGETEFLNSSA

Variant | effect of a mutation on the interaction
V36M | disrupting interaction strength
L69P | disrupting interaction strength
F94S | disrupting interaction strength

Variants of: B8
Conditions: with ccd33_human CCDC33, Q8N5R6
Chain of ccd33_human CCDC33, Q8N5R6 (Q8N5R6 whole entry): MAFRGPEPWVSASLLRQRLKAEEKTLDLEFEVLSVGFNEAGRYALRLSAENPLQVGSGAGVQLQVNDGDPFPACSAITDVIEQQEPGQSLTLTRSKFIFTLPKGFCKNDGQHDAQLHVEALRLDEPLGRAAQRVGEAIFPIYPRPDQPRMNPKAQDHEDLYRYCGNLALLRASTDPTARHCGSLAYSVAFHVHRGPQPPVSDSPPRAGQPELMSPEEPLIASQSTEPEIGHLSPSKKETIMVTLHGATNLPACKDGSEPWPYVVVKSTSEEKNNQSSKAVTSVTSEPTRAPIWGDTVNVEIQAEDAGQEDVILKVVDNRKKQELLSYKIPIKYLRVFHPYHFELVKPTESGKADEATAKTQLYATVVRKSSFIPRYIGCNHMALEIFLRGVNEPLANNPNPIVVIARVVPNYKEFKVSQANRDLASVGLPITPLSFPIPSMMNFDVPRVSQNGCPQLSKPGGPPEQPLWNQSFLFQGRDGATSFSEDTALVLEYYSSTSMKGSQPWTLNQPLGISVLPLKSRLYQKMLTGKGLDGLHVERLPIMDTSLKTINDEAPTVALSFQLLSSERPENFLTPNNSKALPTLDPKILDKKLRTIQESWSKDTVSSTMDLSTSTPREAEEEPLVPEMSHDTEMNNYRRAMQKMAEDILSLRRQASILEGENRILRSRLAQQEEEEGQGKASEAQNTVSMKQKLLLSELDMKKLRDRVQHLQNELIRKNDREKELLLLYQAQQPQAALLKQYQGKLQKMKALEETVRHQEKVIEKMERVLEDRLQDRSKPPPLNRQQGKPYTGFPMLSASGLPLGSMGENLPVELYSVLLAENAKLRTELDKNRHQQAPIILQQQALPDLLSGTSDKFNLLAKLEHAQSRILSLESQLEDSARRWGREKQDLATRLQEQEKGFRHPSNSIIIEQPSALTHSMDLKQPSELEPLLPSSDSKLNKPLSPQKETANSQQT

Variant | effect of a mutation on the interaction
V36M | disrupting interaction strength
L69P | disrupting interaction strength
F94S | disrupting interaction strength
